Reference: patent US20240139351A1, “TARGETING SYSTEM WITH IMPROVED UPTAKE” (CORETAG IP B.V., priority 2021, published 2024)

How the values were obtained:
[1] = Clearance of cyanines in the human body; conditions: in vivo
Source text: (§1) The present targeting molecule is very selective and very specific in binding to necrotic cells. […] For the present invention three specific cyanines are selected, namely 800CW, 800RS, and ZW-800. These molecules are found to have a high affinity towards the intracellular proteins, including tubulin and actin. […] As a result, very low concentrations c.q. amounts of the present system may be used to provide advantageous effects thereof. It is noted that apoptosis specific probes, in contrast to necrosis specific probes will also target healthy tissue as apoptosis is involved in normal tissue turnover. The present cyanine is attached to a second entity, namely a linker, wherein the linker may even be a relatively small molecule, the linker being attached to the present drug uptake improving molecule, wherein the drug uptake improving molecule is selected from aromatic compounds comprising a residue or group selected from amino acid residues, which latter molecule is attached to the chelator, wherein the chelator is typically selected from DOTA and NOTA comprising compounds (DOTA: 1,4,7,10-Tetraazacy-clododecane-1,4,7,10-tetraacetic acid and NOTA: 1,4,7-triazacyclononane-N,N′,N″-tri-acetic acid). Attached to the chelator a further entity may be attached, such as a radionuclide. […]

[2] = test system: intracellular proteins, including tubulin and actin; assay: Affinity of cyanines towards intracellular proteins; type: binding
Source text: as §1

NCI-H69 tumor = assay: Biodistribution of 111In-radiolabeled compounds in mice bearing NCI-H69 tumors
Source text: CORETAG has evaluated the radiolabeling, in vitro binding, pharmacology in tumor animal model, and PET or SPECT imaging with an overall expertise in targeted radiotherapy and companion imaging diagnostic. The aim of this part is to evaluate the biodistribution of the 4 compounds below and compare it to the biodistribution of DOT-AGA-PEG4-CW800 (prior art).
The injected activity was about 9.0 MBq.
The NCI-H69 cell line used is a human small cell lung cancer carcinoma that was
Tumor cells were grown at 37° C. in a humidified atmosphere (5% CO2, 95% air). The culture medium will be RPMI1640 medium containing 10% fetal calf serum. NCI-H69 tumor cells are growing as a cell suspension. For experimental use, tumor cells were harvested by centrifugation. Cells were counted and viability assessed using a 0.25% try-pan blue exclusion assay.
Thirty-one (31) healthy female SWISS Nude (Crl:NU(Ico)-Foxn1nu) mice, 6-8 weeks old at reception, were obtained from Charles River. The injection volume was 100 μl.
Tumors were induced by subcutaneous injection of 2×10^7 NCI-H69 cells in 200 μL of RPMI 1640 into the right flank of 31 female animals in the axis of the heart. NCI-H69 tumor cell implantation was performed 24 to 72 hours after a whole-body irradiation with a gamma-source (2 Gy, 60 Co, BioMep, France). The day of tumor induction is considered as D0.
All imaging experiments were performed on a 4.7T horizontal magnet (PharmaS-can, Bruker Biospin GmbH, Germany) equipped with an actively shielded gradient system. All the MR images were acquired under ParaVision (PV5.1, Bruker Biospin).

[3] = Aqueous solution concentration; type: physicochemical

## CC1(C)C(/C=C/C2=C(Oc3ccc(S(=O)(=O)O)cc3)C(=C/C=C3/N(CCCCS(=O)(=O)O)c4ccc(S(=O)(=O)[O-])cc4C3(C)C)/CCC2)=[N+](CCCCCC(=O)O)c2ccc(S(=O)(=O)O)cc21 [800CW]
[1]
  clearance in the human body: cleared in the human body specifically well
[2]
  affinity towards the intracellular proteins: high affinity

## CC1(C)C(=CC=C2CCCC(C=CC3=[N+](CCC[N+](C)(C)C)c4ccc(S(=O)(=O)O)cc4C3(C)C)=C2Oc2ccc(CCC(=O)O)cc2)N(CCC[N+](C)(C)C)c2ccc(S(=O)(=O)O)cc21 [ZW-800]
[1]
  clearance in the human body: cleared in the human body specifically well
[2]
  affinity towards the intracellular proteins: high affinity

## DOTAGA-LYS-(PEG4-CW800)2 [component 5]
NCI-H69 tumor; all organs
  Uptake in all organs: increased
NCI-H69 tumor; mouse, in vivo
  concentration present (assessment): too high concentration
NCI-H69 tumor; tumor
  uptake in tumor: higher uptake

## IR800CW-PEG4-NaI-DOTA-GA [component 6]
NCI-H69 tumor; mouse, in vivo
  Radioactivity in blood (comparison between components): higher
  dosage to all organs tested compared to components 1-4: about twice as high
  dosage to the tumor compared to components 1-4: about twice as high
  uptake in tumor: higher uptake
NCI-H69 tumor; mouse, in vivo, 3 h
  Remaining radioactivity in whole body after 3 h: higher
[3]
  forms an aqueous solution: > 1 mM
